Measured values: the RNAGym collection of RNA variant scans (doi:10.7554/elife.80360)

B1: Hammerhead Ribozyme (parent)
chain: ACCGGAUGUGCUUUCCGGUCUGAUGAGUCCGUGAGGACGAAACAG

Variants of: B1
Test: self-cleavage, relative activity (ratio to wild type); higher = more cleavage; co-transcriptional

| Variant | self-cleavage |
| --- | --- |
| ACCGGAUGUGCGUUCCGGUCUGAUGCGUCCGUGAGGACGAAACAG | 0.475 |
| ACCGGAUGUGCUUUCCGGUCUGAUGAGACCGUGAGCACGAAACAG | 0.396 |
| ACCGGAUGUGCUUUCCGGUCUGAUGAGUCCGUGAGGAAGAAACCG | 0.405 |
| AACGGAUGUGGUUUCCGGUCUGAUGAGUCCGUGAGGACGAAACAG | 0.828 |
| ACCGGAUGUGCUUUCCGAUCUGAUGUGUCCGUGAGGACGAAACAG | 0.423 |
| ACCGGAUGUGCUGUCCGGUCUGAUGAGUCGGUGAGGACGAAACAG | 0.593 |
| ACCGGAUGUGCUUUCCGGUCCGGUGAGUCCGUGAGGACGAAACAG | 0.354 |
| ACCGGAUGUGCUUUCCGGUCUGAUGAGUCCGCGAGGACGAGACAG | 0.311 |
| ACCGGAUGUGCAUUCCGGUCUGAUGAGUCCGUGAGGGCGAAACAG | 0.71 |
| ACGGGAUCUGCUUUCCGGUCUGAUGAGUCCGUGAGGACGAAACAG | 0.452 |
| ACCGGAAGUGCUUUCUGGUCUGAUGAGUCCGUGAGGACGAAACAG | 1.17 |
| ACCGGAUAUGAUUUCCGGUCUGAUGAGUCCGUGAGGACGAAACAG | 1.28 |
| ACCGGAUGUGCUUUCCGGUCAGGUGAGUCCGUGAGGACGAAACAG | 0.419 |
| ACCGGAUUUGCUUUCCGGUCUGAUGAAUCCGUGAGGACGAAACAG | 0.922 |
| ACCGGAGGUGCUUUCCGGUCUGAUGAGUCCGUUAGGACGAAACAG | 1.32 |
| ACCGGACGUGCCUUCCGGUCUGAUGAGUCCGUGAGGACGAAACAG | 1.09 |
| ACCGGAUGUGCUUUCCGGUCUGAAGAGUCCGUGAGGACGAAACCG | 0.46 |
| ACCGGAUGUGCUUUCCGGUCUGGUGAGUCCGUGAGGACGAACCAG | 0.31 |
| ACCGGAUGUGCUUACCGGUCUGAUGAGUCCGUGAGGACGAAAAAG | 0.333 |
| ACCGGAUGUGCUCUCAGGUCUGAUGAGUCCGUGAGGACGAAACAG | 1.05 |
| ACCGGAUGUGCUUUCUGGUCUUAUGAGUCCGUGAGGACGAAACAG | 0.327 |
| ACCGGAUGUCCUUUUCGGUCUGAUGAGUCCGUGAGGACGAAACAG | 1.01 |
| AUCGGAUGUGCUUUCCGGUCUGUUGAGUCCGUGAGGACGAAACAG | 0.415 |

| Variant | self-cleavage |
| --- | --- |
| ACCGGAUGUGCUUUCCGGUCUGAUGAGUCCUUGAAGACGAAACAG | 0.879 |
| ACCGGAUGUGCUUUCCGGUCUGAUGAGUCCGUGACGACGUAACAG | 0.296 |
| ACCUGAUGUGCUUUCCGGUCUGAUGAGUCCGUGAGGACGUAACAG | 0.297 |
| UCCGGAUGUGCUUUCCGGUCUGAUGAUUCCGUGAGGACGAAACAG | 0.417 |
| ACCGGAUGUGCUCUCCGGUCUGAUGAGUCCAUGAGGACGAAACAG | 1.04 |
| ACCGGAUGGGCUGUCCGGUCUGAUGAGUCCGUGAGGACGAAACAG | 0.802 |
| ACCGGAUGUGCUUACCGGUCUGAUGAGUCUGUGAGGACGAAACAG | 0.96 |
| ACCGGAUGUGCUUUCCGGGCCGAUGAGUCCGUGAGGACGAAACAG | 0.471 |
| UCCGGAUGUGCUUUCCGGUCUGAUGAGUCCGUGAGGACGAAAGAG | 0.448 |
| ACCGGAUGUGCUUUCCGGUCUGAUGAGUGCGUGAGGACGAUACAG | 0.29 |
| ACCGGAUGUGCUUUCCGCUCUGAUUAGUCCGUGAGGACGAAACAG | 0.284 |
| ACCGGAUGUGCUUUCCGGUCUGAUGUGUCCGUGAGGACGAAGCAG | 0.303 |
| ACCGGAUCUGCUUUCCGGUCUGAUGAGUCCGUGAGGACGAAACUG | 0.56 |
| ACCGGAUGUGCUUUCCCGUCUGAUGAGUCCGUGAGGCCGAAACAG | 0.505 |
| ACCGGAUGCGCUUUCCGGUCUGAUGAGUCCGUGAGGACGAAACAA | 0.78 |
| ACCAGAUGUGCUUUCCGGUCUUAUGAGUCCGUGAGGACGAAACAG | 0.302 |
| ACCGGAUGUGCUUUCCGGUCCGAUGAGUCCGUGAGGACAAAACAG | 0.304 |
| ACCGGAUGUGCUGUCCGGUCUGAUGAGUCCGUGAGGGCGAAACAG | 0.868 |
| ACCGGAUGUGCUUUCCGGUCUACUGAGUCCGUGAGGACGAAACAG | 0.224 |
| AUCGGAUGUGCUUUCCGGUCUGAUGAGUCCGUGAGGACAAAACAG | 0.376 |
| AGCGGAUGUGCUUUCCGGUCUGAUGAGUCCUUGAGGACGAAACAG | 0.503 |
| ACCGGAUGUGCUUUCCGGUCUGAUGAGUCCGUGAGGACGGAACAU | 0.421 |
| ACCGGAUGUACUUUCCGUUCUGAUGAGUCCGUGAGGACGAAACAG | 1.13 |

| Variant | self-cleavage |
| --- | --- |
| ACCGGAUGUGAUUUCCGGUCUGAUGAGUCCGUUAGGACGAAACAG | 1.21 |
| ACCGGAUGGGCUUUCCGGUCUGAUGAGUCAGUGAGGACGAAACAG | 0.677 |
| ACCGGAUGUGCUUUCCGGCCUGAUGAGUCCGUGAGGAAGAAACAG | 0.414 |
| GCCGGAUGUGCUUUCCGGUCUGAUGAGUCCGCGAGGACGAAACAG | 1.48 |
| ACAGGAUGUGCUUUCCGGUCUGAUGAGUCCGUGAGGACGAAGCAG | 0.279 |
| ACAGGAUGUGCUUUCCGGUCUCAUGAGUCCGUGAGGACGAAACAG | 0.285 |
| AGCGGAUGUGCUUUCCGGUCUGAUGAGUCCGUGAGGACGAAAUAG | 0.305 |
| ACCGGAUGUGCUUUCCGGUCUGAUCAGUCCGUGAGGGCGAAACAG | 0.321 |
| ACCGGAUGUGCUUUCCGGUCUGAUGAGUCCGUGAGGACGAAACUG | 0.756 |
| ACCGGAUGUGCUUUACGGUCUGAUGAGUCCAUGAGGACGAAACAG | 1.05 |
| ACCGGAUGUGCUUUCCGGUCUGAUGAGUCCGGGCGGACGAAACAG | 0.805 |
| ACCGGAUGUGCUGUCCGGUCUGACGAGUCCGUGAGGACGAAACAG | 0.83 |
| ACCGGAUGUGCUUUCCGGUCUGAUGAGUCCUUGUGGACGAAACAG | 0.844 |
| ACCGCAUGUGCUUUCCGGUCUGAUGAGUCCGUGAGGACGAAACAU | 0.382 |
| ACCGGAUGUGCUUUCCGGUGUGAUGAGUCUGUGAGGACGAAACAG | 0.255 |
| ACCGGAUGUGCUUUUCGGUCUGAUUAGUCCGUGAGGACGAAACAG | 0.314 |
| ACCCGAUGUGCUUUCCGGUCUGAUGAGUCGGUGAGGACGAAACAG | 0.371 |
| AACGGGUGUGCUUUCCGGUCUGAUGAGUCCGUGAGGACGAAACAG | 0.426 |
| CCCGGAUGUGCUUUCCGAUCUGAUGAGUCCGUGAGGACGAAACAG | 0.434 |
| ACCGGAUGUACUUUCCGGUCUGAUGAGACCGUGAGGACGAAACAG | 1.12 |
| ACCGGAUGUGUUUUCCUGUCUGAUGAGUCCGUGAGGACGAAACAG | 0.405 |
| ACCGGAUGUGCUUUCCGAUCGGAUGAGUCCGUGAGGACGAAACAG | 0.404 |
| ACCGGAUGUGCAUUCCGGUCUGAUGCGUCCGUGAGGACGAAACAG | 0.429 |

| Variant | self-cleavage |
| --- | --- |
| ACCGGAUGUGGUUCCCGGUCUGAUGAGUCCGUGAGGACGAAACAG | 0.867 |
| ACCGGAUGUGCUUUACGGUCUGAUGAGUCCGUGGGGACGAAACAG | 0.96 |
| ACCGGAUGUGCUGUCCGGUCUGAUGAGCCCGUGAGGACGAAACAG | 1.01 |
| ACCGGAUGUGCUAUCCGGUCUGAUGACUCCGUGAGGACGAAACAG | 0.823 |
| ACCGGAUGUGCUUUCCGGUCUGAUAAGUCCGUGAGGACGAGACAG | 0.337 |
| ACCGGAUGUGCUUUCCGGUCUGAUGAGUCCGUCAGGACGAAACAU | 0.874 |
| ACCGGAUGUGCUUUCCGGUCUGAUGAGCCCGUGGGGACGAAACAG | 0.934 |
| ACCGGAUGUGCUCUCCGGUCUGAUGAGUCGGUGAGGACGAAACAG | 0.956 |
| AGCGGAUGUGCUUUCCGGUCUGAUGAGUCCGUUAGGACGAAACAG | 0.535 |
| ACCGGAUGUGCUUUCCGGUCUGUUGAGUCCGUGAGGACGAAACAG | 0.425 |
| ACCGGAUGUGCUUUCCGGUCUGAUGAGUUCGUGAGGACGAAACAG | 0.947 |
| CCCGGAUGUGCAUUCCGGUCUGAUGAGUCCGUGAGGACGAAACAG | 0.471 |
| ACCGGAUGUGCUUUCCGGUCUGAUGACUCCGUGAGGACGAAACAU | 0.564 |
| ACCGGAUGAGCUUACCGGUCUGAUGAGUCCGUGAGGACGAAACAG | 1.07 |
| ACCGAAUGUCCUUUCCGGUCUGAUGAGUCCGUGAGGACGAAACAG | 1.16 |
| ACCGGAUUUGCUUUCCGGUCUGAUGAGUCCGUGAGGACGAAUCAG | 0.344 |
| AUCGGAUGUGCUUUCCGGUCUGAUGAGUCCGUGAGGAUGAAACAG | 1.21 |
| ACCGGAUGUGCUUUCCGGUCUGAUGAGUCGGUGUGGACGAAACAG | 0.888 |
| ACCGGAUGUUCUUUCCGGUCUUAUGAGUCCGUGAGGACGAAACAG | 0.351 |
| ACCGGAUCUGCUUUCCGGUCUGAUGAAUCCGUGAGGACGAAACAG | 0.787 |
| ACCGGAUGUGCUUUCCGGUCUGAAAAGUCCGUGAGGACGAAACAG | 0.243 |
| ACCGGAUGUGCGUUCCGGUCUGAUGAGUCCGUGAGAACGAAACAG | 0.518 |
| ACCGGAUGUGCUAUCCGGUCUGAUGAGUCCGUGAGGACGAAAUAG | 0.614 |

| Variant | self-cleavage |
| --- | --- |
| AGCGGAUGUGCUUUCCGGUCUGAAGAGUCCGUGAGGACGAAACAG | 0.476 |
| ACCGGAUGUGCUUUCCGAUCUGAUGAGUUCGUGAGGACGAAACAG | 0.574 |
| ACCGGAUGUGCUUUCCGGUCUGAUGAGUCCGAGAGAACGAAACAG | 0.721 |
| ACAGGAUGUGCUUUCCGGUCUGAUGAGUCCGUGAGGACGAGACAG | 0.262 |
| ACAGGAUGUGCUUUCCGGUCUGAUGAGUCCGUGAGGACGAUACAG | 0.259 |
| ACAGGAUGUGCUUUCCGGGCUGAUGAGUCCGUGAGGACGAAACAG | 0.296 |
| ACCGGAUGUGCUUUCCGAUCUGAUGAGUCCGUGAGGACGAAUCAG | 0.338 |
| AACGGAUGUGCUUUCCGGUCUGACGAGUCCGUGAGGACGAAACAG | 0.733 |
| ACCGGUUGUGCUUUCCGGUCUGAUGAGUCCGCGAGGACGAAACAG | 0.988 |
| ACCGGAUGUGCUUUCCGGUCUGAUGAGUCCGUCAGGACUAAACAG | 0.364 |
| ACCGGAUGUGCUUUCCGGUCUGAUGAUUCCGUCAGGACGAAACAG | 0.484 |
| ACCCGAUGUGCUUUCCGGUCUGAUGAGUCCGUGAGGACGGAACAG | 0.243 |
| ACCGGAUGUGCUUUCCGGUCUGAUGAGUCCGUGCGGACGAAUCAG | 0.322 |
| ACCGGAUGUGCUUUCUGGUCUGAUGAGUCCGUGAGGACGAAACAC | 0.921 |
| ACCGGAUGUGCUUUCCGGUCUGAUGAGUACGUGAGGACGAAACAU | 0.35 |
| ACCGGAUUUGCUUUCCGGUCUGAUGAGUCCGUGAGGACGAAACAC | 0.768 |
| ACCGGAAGUGCUUUCCGGUCUGAUGAGUCCGUGUGGACGAAACAG | 1.22 |
| ACCGGAUGUGCUUUCCGGUCUGAUGAGUCCGUGAGGACUAACCAG | 0.353 |
| ACCGGAUGUGCUUUCCGAUCUGAUGAGUCCGUGAGGCCGAAACAG | 0.611 |
| ACCCGAUGUGCUUUCCGGUCUUAUGAGUCCGUGAGGACGAAACAG | 0.238 |
| ACCGGAUGCGCUUUCCGGCCUGAUGAGUCCGUGAGGACGAAACAG | 0.514 |
| ACCGGAUGGGCUUUCCGGUCUGAUGAGUCCGUGAGGACGAUACAG | 0.306 |
